Tested on: Escherichia coli TOP10
Assay: shrunken log2 fold change of peptide-encoding DNA abundance (4.5 h post-induction vs induction); higher = less antimicrobial activity (less host growth inhibition)
Settings: time post-induction: 4.5 h; library: site-saturation at positions 5, 18, 19, 20
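Further: peptides expressed intracellularly from a pBAD plasmid library in pooled LB shake-flask culture, induced with 0.3% L-arabinose, DNA abundance read by NGS, three biological replicates, DESeq2 with apeglm shrinkage.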

Going from RRIRFRPPRLPRPRPRPLMSPRP to RRIRFRPPRLPRPRPRPLPRPRP, the “shrunken log2 fold change” value rises from -0.0355 to 0.669.

RRIRFRPPRLPRPRPRPLPTPRP and RRIRFRPPRLPRPRPRPLRHPRP are within 0.2 log units of each other in “shrunken log2 fold change” value: 0.336 for the first, 0.353 for the second.

RRIRFRPPRLPRPRPRPLSQPRP and RRIRFRPPRLPRPRPRPLTWPRP are within 0.2 log units of each other in “shrunken log2 fold change” value: -0.271 for the first, -0.163 for the second.

RRIRFRPPRLPRPRPRPLVEPRP and RRIRFRPPRLPRPRPRPLVGPRP are within 0.2 log units of each other in “shrunken log2 fold change” value: -0.0559 for the first, -0.0413 for the second.

Compared with RRIRFRPPRLPRPRPRPLWKPRP, RRIRFRPPRLPRPRPRPLYLPRP is lower in “shrunken log2 fold change” value: -0.0606 for the first, -0.826 for the second.

RRIRFRPPRLPRPRPRPMAVPRP and RRIRFRPPRLPRPRPRPMCTPRP are within 0.2 log units of each other in “shrunken log2 fold change” value: -0.0113 for the first, 0.0284 for the second.

RRIRFRPPRLPRPRPRPMDHPRP and RRIRFRPPRLPRPRPRPMDVPRP are within 0.2 log units of each other in “shrunken log2 fold change” value: -0.131 for the first, -0.0444 for the second.

RRIRFRPPRLPRPRPRPMDYPRP and RRIRFRPPRLPRPRPRPMEMPRP are within 0.2 log units of each other in “shrunken log2 fold change” value: -0.00172 for the first, -0.0294 for the second.

RRIRFRPPRLPRPRPRPMFQPRP and RRIRFRPPRLPRPRPRPMGIPRP are within 0.2 log units of each other in “shrunken log2 fold change” value: -0.336 for the first, -0.23 for the second.

RRIRFRPPRLPRPRPRPMGRPRP and RRIRFRPPRLPRPRPRPMGWPRP are within 0.2 log units of each other in “shrunken log2 fold change” value: 0.103 for the first, 0.0642 for the second.

Compared with RRIRFRPPRLPRPRPRPMHAPRP, RRIRFRPPRLPRPRPRPMHDPRP is lower in “shrunken log2 fold change” value: 0.0753 for the first, -0.236 for the second.

Going from RRIRFRPPRLPRPRPRPMHEPRP to RRIRFRPPRLPRPRPRPMHSPRP, the “shrunken log2 fold change” value falls from 0.085 to -0.263.

Going from RRIRFRPPRLPRPRPRPMKDPRP to RRIRFRPPRLPRPRPRPMLPPRP, the “shrunken log2 fold change” value rises from -0.47 to -0.184.

Compared with RRIRFRPPRLPRPRPRPMMEPRP, RRIRFRPPRLPRPRPRPMMPPRP is higher in “shrunken log2 fold change” value: -0.426 for the first, -0.0286 for the second.

RRIRFRPPRLPRPRPRPMPWPRP and RRIRFRPPRLPRPRPRPMQAPRP are within 0.2 log units of each other in “shrunken log2 fold change” value: 0.157 for the first, 0.119 for the second.

Compared with RRIRFRPPRLPRPRPRPMQCPRP, RRIRFRPPRLPRPRPRPMRLPRP is higher in “shrunken log2 fold change” value: 0.188 for the first, 0.947 for the second.

RRIRFRPPRLPRPRPRPMSGPRP and RRIRFRPPRLPRPRPRPMTAPRP are within 0.2 log units of each other in “shrunken log2 fold change” value: -0.0751 for the first, -0.00148 for the second.

Compared with RRIRFRPPRLPRPRPRPMTKPRP, RRIRFRPPRLPRPRPRPMTQPRP is lower in “shrunken log2 fold change” value: 0.0716 for the first, -0.421 for the second.

Going from RRIRFRPPRLPRPRPRPMVDPRP to RRIRFRPPRLPRPRPRPMVLPRP, the “shrunken log2 fold change” value rises from -0.304 to -0.0723.

RRIRFRPPRLPRPRPRPMVPPRP and RRIRFRPPRLPRPRPRPMWKPRP are within 0.2 log units of each other in “shrunken log2 fold change” value: 0.0354 for the first, -0.0148 for the second.

First: RRIRFRPPRLPRPRPRPMWPPRP
Second: RRIRFRPPRLPRPRPRPMWTPRP
The “shrunken log2 fold change” value of the first is higher: -0.0873 for the first, -0.37 for the second.

RRIRFRPPRLPRPRPRPNAQPRP and RRIRFRPPRLPRPRPRPNCCPRP are within 0.2 log units of each other in “shrunken log2 fold change” value: 0.0328 for the first, 0.0101 for the second.

Going from RRIRFRPPRLPRPRPRPNCTPRP to RRIRFRPPRLPRPRPRPNCVPRP, the “shrunken log2 fold change” value falls from 0.0099 to -0.321.

Going from RRIRFRPPRLPRPRPRPNDHPRP to RRIRFRPPRLPRPRPRPNDSPRP, the “shrunken log2 fold change” value rises from -0.512 to -0.0675.

Compared with RRIRFRPPRLPRPRPRPNEHPRP, RRIRFRPPRLPRPRPRPNGKPRP is higher in “shrunken log2 fold change” value: -0.525 for the first, 0.0809 for the second.

Going from RRIRFRPPRLPRPRPRPNGPPRP to RRIRFRPPRLPRPRPRPNKDPRP, the “shrunken log2 fold change” value rises from -0.0934 to 0.539.

Compared with RRIRFRPPRLPRPRPRPNKEPRP, RRIRFRPPRLPRPRPRPNMIPRP is lower in “shrunken log2 fold change” value: 0.0307 for the first, -0.495 for the second.

RRIRFRPPRLPRPRPRPNPGPRP and RRIRFRPPRLPRPRPRPNPKPRP are within 0.2 log units of each other in “shrunken log2 fold change” value: 0.159 for the first, 0.0977 for the second.

Going from RRIRFRPPRLPRPRPRPNPQPRP to RRIRFRPPRLPRPRPRPNQCPRP, the “shrunken log2 fold change” value falls from 0.17 to -0.511.

Going from RRIRFRPPRLPRPRPRPNQTPRP to RRIRFRPPRLPRPRPRPNQWPRP, the “shrunken log2 fold change” value falls from 0.275 to -0.21.

First: RRIRFRPPRLPRPRPRPNRGPRP
Second: RRIRFRPPRLPRPRPRPNSCPRP
The “shrunken log2 fold change” value of the first is higher: 0.149 for the first, -0.895 for the second.

RRIRFRPPRLPRPRPRPNWKPRP and RRIRFRPPRLPRPRPRPPAYPRP are within 0.2 log units of each other in “shrunken log2 fold change” value: 0.0201 for the first, 0.127 for the second.

RRIRFRPPRLPRPRPRPPCDPRP and RRIRFRPPRLPRPRPRPPCMPRP are within 0.2 log units of each other in “shrunken log2 fold change” value: 0.0212 for the first, -0.125 for the second.

Compared with RRIRFRPPRLPRPRPRPPDIPRP, RRIRFRPPRLPRPRPRPPEPPRP is higher in “shrunken log2 fold change” value: -0.329 for the first, 0.54 for the second.

RRIRFRPPRLPRPRPRPPHHPRP and RRIRFRPPRLPRPRPRPPHIPRP are within 0.2 log units of each other in “shrunken log2 fold change” value: -0.0595 for the first, -0.21 for the second.

Compared with RRIRFRPPRLPRPRPRPPHNPRP, RRIRFRPPRLPRPRPRPPIEPRP is lower in “shrunken log2 fold change” value: 0.0036 for the first, -0.201 for the second.

RRIRFRPPRLPRPRPRPPKHPRP and RRIRFRPPRLPRPRPRPPKIPRP are within 0.2 log units of each other in “shrunken log2 fold change” value: 0.292 for the first, 0.145 for the second.

For RRIRFRPPRLPRPRPRPPPMPRP, the “shrunken log2 fold change” value was 1.17.
